Reference: IntAct's records for PubMed 9428767

B1: Serine/threonine-protein kinase STE20 (Saccharomyces cerevisiae), Q03497 (parent)
chain: MSNDPSAVSELPDKDSLDNGISNDNERAMGGNGDGGDGLRLPRTTGTLNVNALQKGTNAAHEAGGYKSMDPAKNAETTNDDDNNVVSLDDPIQFTRVSSSSVISGMSSSMSPHSNIDETKSLEAVTPNINTSNITPDHSADNTFSTINASESDHQFNDTLLSKLSLTDSTETIENNATVKHQQPVASSTVNSNKSSTDIRRATPVSTPVISKPSMTTTPRQINSASHSLSNPKHKQHKPKVKPSKPEAKSKPVSVKKSFPSKNPLKNSSPPKKQTEKSYYSSSSKKRKSGSNSGTLRMKDVFTSFVQNIKRNSQDDKRASSSSNNSSSSSITTALRISTPYNAKHIHHVGVDSKTGEYTGLPEEWEKLLTSSGISKREQQQNMQAVMDIVKFYQDVTETNGEDKMFKTFNTTTGLPGSPQVSTPPANSFNKFPPSTSDSHNYGSRTGTPMSNHVMSPTLNTDSSSANGKFIPSRPAPKPPSSASASAPIIKSPVMNSAANVSPLKQTHAPTTPNRTSPNRSSISRNATLKKEEQPLPPIPPTKSKTSPIISTAHTPQQVAQSPKAPAQETVTTPTSKPAQARSLSKELNEKKREERERRKKQLYAKLNEICSDGDPSTKYANLVKIGQGASGGVYTAYEIGTNVSVAIKQMNLEKQPKKELIINEILVMKGSKHPNIVNFIDSYVLKGDLWVIMEYMEGGSLTDVVTHCILTEGQIGAVCRETLSGLEFLHSKGVLHRDIKSDNILLSMEGDIKLTDFGFCAQINELNLKRTTMVGTPYWMAPEVVSRKEYGPKVDIWSLGIMIIEMIEGEPPYLNETPLRALYLIATNGTPKLKEPENLSSSLKKFLDWCLCVEPEDRASATELLHDEYITEIAEANSSLAPLVKLARLKKVAENMDADEDNDDDNDNEHINKTNNCDDNNDSKETVNLDVTEDDKQK
partner: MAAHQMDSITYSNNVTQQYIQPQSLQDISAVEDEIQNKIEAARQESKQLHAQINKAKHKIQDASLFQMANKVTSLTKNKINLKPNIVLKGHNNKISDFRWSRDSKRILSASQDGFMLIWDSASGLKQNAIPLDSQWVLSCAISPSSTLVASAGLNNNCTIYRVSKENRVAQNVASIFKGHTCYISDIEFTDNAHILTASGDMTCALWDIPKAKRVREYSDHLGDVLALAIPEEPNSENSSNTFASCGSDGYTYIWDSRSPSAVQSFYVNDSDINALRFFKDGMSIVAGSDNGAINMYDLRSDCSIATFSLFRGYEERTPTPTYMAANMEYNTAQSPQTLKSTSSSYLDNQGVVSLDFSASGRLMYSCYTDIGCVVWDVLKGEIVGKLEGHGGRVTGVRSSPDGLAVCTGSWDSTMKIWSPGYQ
B2: Guanine nucleotide-binding protein subunit beta (Saccharomyces cerevisiae), P18851 (parent)
chain: B1 partner
partner: B1 chain

Variants of: B1
Conditions: with gbb_yeast STE4, P18851

Row | Variant | effect of a mutation on the interaction
1 | S879A;S880A;P883A | decreasing interaction

Variants of: B2
Conditions: with ste20_yeast STE20, Q03497

Row | Variant | effect of a mutation on the interaction
2 | D62N | decreasing interaction
3 | K55D | decreasing interaction
